Where a chain is given by its changes, count along the chain named. Names and notes keep the numbering of the source. One block for each binder: values may come before it.
What was measured:
[1] = molecular target: T1, soluble mouse FcγRII, His-tagged (mouse, UniProt P08101 30-210, limits assumed); assay: SPR, mouse FcγRII captured via His-tag, antigen-antibody complex injected, pH 7.4, 25 C
T1 construct: Captured on the chip through an anti-His antibody
T1 sequence (looked up): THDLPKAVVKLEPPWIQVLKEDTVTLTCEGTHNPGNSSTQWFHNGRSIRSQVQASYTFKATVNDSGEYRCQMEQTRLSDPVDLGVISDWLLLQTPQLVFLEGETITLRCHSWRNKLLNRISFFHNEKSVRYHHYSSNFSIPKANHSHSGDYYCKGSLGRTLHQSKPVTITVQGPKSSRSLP
Method: Regarding the produced Fc region variant-containing antibodies, binding assays between soluble mouse FcγRII and antigen-antibody complexes were performed using BIACORE® T200 (GE Healthcare). Soluble mouse FcγRII was produced in the form of a His-tagged molecule by a method known to those skilled in the art. An appropriate amount of an anti-His antibody was fixed onto Sensor chip CM5 (GE Healthcare) by the amine coupling method using a His capture kit (GE Healthcare) to capture mouse FcγRII. Next, an antibody-antigen complex and a running buffer (as a reference solution) were injected, and interaction was allowed to take place with the mouse FcγRII captured onto the sensor chip. 20 mM N-(2-Acetamido)-2-aminoethanesulfonic acid, 150 mM NaCl, 1.2 mM CaCl₂), and 0.05% (w/v) TWEEN® 20 at pH7.4 was used as the running buffer, and the respective buffer was also used to dilute the soluble mouse FcγRII. To regenerate the sensor chip, 10 mM glycine-HCl at pH1.5 was used. All measurements were carried out at 25° C. […] To calculate the parameters, the BIACORE® T100 Evaluation Software (GE Healthcare) was used.

[2] = molecular target: T2, human FcγRIIb constitutively expressed on MDCK cells (human, UniProt P31994 43-310); assay: cell-based or functional assay
T2 sequence (looked up): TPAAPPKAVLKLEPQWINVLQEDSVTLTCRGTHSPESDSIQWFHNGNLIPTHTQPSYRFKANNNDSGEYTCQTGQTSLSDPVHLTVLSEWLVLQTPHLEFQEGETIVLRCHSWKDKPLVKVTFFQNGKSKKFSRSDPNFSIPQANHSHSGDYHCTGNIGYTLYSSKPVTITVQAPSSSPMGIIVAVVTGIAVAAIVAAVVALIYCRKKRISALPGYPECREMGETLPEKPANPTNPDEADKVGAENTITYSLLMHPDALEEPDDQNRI

[3] = molecular target: T3, cynomolgus monkey FcγRIIIaS extracellular domain with C-terminal His-tag (cynomolgus monkey, UniProt Q8SPW2 21-206 at identity 1.00)); assay: SPR, antibody captured, FcγR analyte
T3 construct: also called cyno FcgRIIIaS; cynoFcγRIIIaS
T3 chain: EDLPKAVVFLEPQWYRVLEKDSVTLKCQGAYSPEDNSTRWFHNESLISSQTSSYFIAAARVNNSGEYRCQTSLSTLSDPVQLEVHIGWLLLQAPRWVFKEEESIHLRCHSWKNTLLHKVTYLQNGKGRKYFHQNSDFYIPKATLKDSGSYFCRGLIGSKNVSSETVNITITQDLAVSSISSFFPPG

[4] = molecular target: T4, human FcγRIIaR extracellular domain with C-terminal His-tag (human, UniProt P12318 34-217); assay: SPR, antibody captured, FcγR analyte
T4 construct: also called human FcgRIIaR; FcγRIIa (type R)
T4 chain: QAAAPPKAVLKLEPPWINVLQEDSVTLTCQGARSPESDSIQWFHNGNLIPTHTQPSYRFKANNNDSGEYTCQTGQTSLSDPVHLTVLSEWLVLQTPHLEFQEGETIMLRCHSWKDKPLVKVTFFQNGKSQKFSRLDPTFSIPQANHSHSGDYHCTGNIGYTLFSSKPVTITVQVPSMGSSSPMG

[5] = molecular target: T3, cynomolgus monkey FcγRIIIaS …; assay: SPR, KD(SG1)/KD(variant)
[6] = molecular target: T5, cynomolgus monkey FcγRIIb extracellular domain with C-terminal His-tag (cynomolgus monkey); assay: SPR, KD(SG1)/KD(variant)
T5 construct: also called cyno FcgRIIb; cynoFcγRIIb
T5 chain: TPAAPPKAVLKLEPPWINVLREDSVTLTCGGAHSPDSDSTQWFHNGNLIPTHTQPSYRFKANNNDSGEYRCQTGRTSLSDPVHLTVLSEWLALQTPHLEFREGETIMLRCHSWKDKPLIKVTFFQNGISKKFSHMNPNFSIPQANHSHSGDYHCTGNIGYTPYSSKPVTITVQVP

[7] = molecular target: T6, human FcγRIIIaV extracellular domain with C-terminal His-tag (human, UniProt P08637 17-208); assay: SPR (Biacore), KD of SG1 divided by KD of variant
T6 construct: also called human FcgRIIIaV
T6 sequence (P08637 17-208 F176V): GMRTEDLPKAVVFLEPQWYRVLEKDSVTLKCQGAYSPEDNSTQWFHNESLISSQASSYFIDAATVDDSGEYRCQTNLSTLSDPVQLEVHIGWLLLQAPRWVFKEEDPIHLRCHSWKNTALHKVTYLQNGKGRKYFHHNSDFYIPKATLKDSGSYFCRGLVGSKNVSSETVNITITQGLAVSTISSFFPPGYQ

[8] = molecular target: T7, cynomolgus monkey FcγRIIIaS extracellular domain with C-terminal His-tag (cynomolgus monkey, UniProt Q8SPW2 21-206 at identity 1.00)); assay: SPR (Biacore), KD of SG1 divided by KD of variant
T7 construct: also called cyno FcgRIIIaS; cynoFcγRIIIaS
T7 chain: T3 chain

[9] = molecular target: T8, human FcγRIIaR extracellular domain with C-terminal His-tag (human, UniProt P12318 34-217); assay: SPR (Biacore), KD of SG1 divided by KD of variant
T8 construct: also called human FcgRIIaR; FcγRIIa (type R)
T8 chain: T4 chain

[10] = molecular target: T9, cynomolgus monkey FcγRIIb extracellular domain with C-terminal His-tag (cynomolgus monkey); assay: SPR (Biacore), KD of SG1 divided by KD of variant
T9 construct: also called cyno FcgRIIb; cynoFcγRIIb
T9 chain: T5 chain

[11] = molecular target: T10, human FcγRIIIaV extracellular domain with C-terminal His-tag (human, UniProt P08637 17-208); assay: SPR, KD(SG1)/KD(variant)
T10 construct: also called human FcgRIIIaV
T10 sequence (P08637 17-208 F176V): as above

[12] = molecular target: T4, human FcγRIIaR extracellular domain …; assay: SPR, KD(SG1)/KD(variant)
[13] = molecular target: T11, human FcγRIIb extracellular domain with C-terminal His-tag (human, UniProt P31994 43-217); assay: SPR, KD(SG1)/KD(variant)
T11 construct: also called human FcgRIIb
T11 sequence: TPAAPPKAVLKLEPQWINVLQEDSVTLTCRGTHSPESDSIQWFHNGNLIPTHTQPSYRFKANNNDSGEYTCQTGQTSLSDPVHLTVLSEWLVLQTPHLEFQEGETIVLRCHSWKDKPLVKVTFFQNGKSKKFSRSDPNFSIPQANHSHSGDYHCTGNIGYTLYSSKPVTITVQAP

[14] = molecular target: T12, human FcγRIIaH extracellular domain with C-terminal His-tag (human, UniProt P12318 34-217); assay: SPR (Biacore), antibody captured, FcgR as analyte
T12 construct: also called human FcgRIIaH; FcγRIIa (type H)
T12 sequence: T4 chain with R134H

[15] = molecular target: T8, human FcγRIIaR extracellular domain …; assay: SPR (Biacore), antibody captured, FcgR as analyte
[16] = molecular target: T13, cynomolgus monkey FcγRIIa1 extracellular domain with C-terminal His-tag (cynomolgus monkey); assay: SPR (Biacore), antibody captured, FcgR as analyte
T13 construct: also called cyno FcgRIIa1; cynoFcγRIIa1
T13 chain: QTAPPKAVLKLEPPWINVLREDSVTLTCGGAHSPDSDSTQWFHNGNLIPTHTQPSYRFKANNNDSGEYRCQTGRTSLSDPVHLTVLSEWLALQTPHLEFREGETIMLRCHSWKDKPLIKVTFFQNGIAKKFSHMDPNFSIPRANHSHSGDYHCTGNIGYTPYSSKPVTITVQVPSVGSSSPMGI

[17] = molecular target: T14, human FcγRIIb extracellular domain with C-terminal His-tag (human, UniProt P31994 43-217); assay: SPR (Biacore), KD of SG1 divided by KD of variant
T14 construct: also called human FcgRIIb
T14 sequence: T11 sequence

[18] = molecular target: T13, cynomolgus monkey FcγRIIa1 …; assay: SPR (Biacore), KD of SG1 divided by KD of variant
[19] = molecular target: T15, cynomolgus monkey FcγRIIa3 extracellular domain with C-terminal His-tag (cynomolgus monkey); assay: SPR (Biacore), KD of SG1 divided by KD of variant
T15 construct: also called cyno FcgRIIa3; cynoFcγRIIa3
T15 chain: T13 chain with P95T, T121A, A128S, H133P, D135N

B1: MS1032LO06-SG1 (antibody, human IgG1, kappa)
heavy: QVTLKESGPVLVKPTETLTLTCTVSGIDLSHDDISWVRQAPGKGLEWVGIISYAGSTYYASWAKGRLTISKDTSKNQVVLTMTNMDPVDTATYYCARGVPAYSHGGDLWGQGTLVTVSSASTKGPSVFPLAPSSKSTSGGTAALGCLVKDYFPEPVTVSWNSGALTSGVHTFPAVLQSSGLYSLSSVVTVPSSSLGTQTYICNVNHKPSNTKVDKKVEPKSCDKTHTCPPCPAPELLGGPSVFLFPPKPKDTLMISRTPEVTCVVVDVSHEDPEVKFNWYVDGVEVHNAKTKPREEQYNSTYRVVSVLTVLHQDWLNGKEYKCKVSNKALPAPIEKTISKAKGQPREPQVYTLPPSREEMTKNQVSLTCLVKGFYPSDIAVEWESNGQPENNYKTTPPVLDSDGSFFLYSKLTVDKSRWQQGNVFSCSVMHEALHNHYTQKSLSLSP
light: DIVMTQSPATLSLSPGERATLSCTSSQSVYHANWLSWFQQKPGQPPKLLIYWASTLAYGVPSRFSGSGSGTDFTLTISSLQPEDAATYYCAGGYGGGRYAFGQGTKVEIKRTVAAPSVFIFPPSDEQLKSGTASVVCLLNNFYPREAKVQWKVDNALQSGNSQESVTEQDSKDSTYSLSSTLTLSKADYEKHKVYACEVTHQGLSSPVTKSFNRGEC
notes: also called M103205H795-SG1; copies: 2 + 2
biacore IC binding (relative, SG1 = 1.00) [1]: 1 relative to SG1
celluar uptake (labelled human latent myostatin taken up as antigen-antibody complex) [2]: 1 relative to SG1 = 1.00
Kd [3]: 260 nM
Kd [4]: 10000 nM

B3: M103205H795-MY514 / M103202L889-SK1 (antibody)
heavy: QVTLKESGPVLVKPTETLTLTCTVSGIDLSHDDISWVRQAPGKGLEWVGIISYAGSTYYASWAKGRLTISKDTSKNQVVLTMTNMDPVDTATYYCARGVPAYSHGGDLWGQGTLVTVSSASTKGPSVFPLAPSSKSTSGGTAALGCLVKDYFPEPVTVSWNSGALTSGVHTFPAVLQSSGLYSLSSVVTVPSSSLGTQTYICNVNHKPSNTKVDKKVEPKSCDKTHTCPPCPAPELLTGPVVFLFPPKPKDTLMISRTPEVTCVVVDVSDEDPEVKFNWYVDGVEVHNAKTKPREEQYNLTYRVVSVLTVLHQDWLNGKEYKCKVSNKALPKPIEKTISKAKGQPREPQVYTLPPSREEMTKNQVSLTCLVKGFYPSDIAVEWESNGQPENNYKTTPPVLDSDGSFFLYSKLTVDKSRWQQGNVFSCSVMHEALHNHYTQKSLSLSP
light: B1 light
notes: 'S258L' copied as printed, probably S298L
KD fold (SG1 = 1) [7]: 0.09 fold
KD fold (SG1 = 1) [8]: 0.05 fold
KD fold (SG1 = 1) [9]: 6.9 fold
KD fold (SG1 = 1) [10]: 2.6 fold

B6: M103205H795-MY528 / M103202L889-SK1 (antibody, human IgG1, kappa, name in EU numbering)
heavy: B3 heavy with L236W, V241S, L300S
light: B1 light
Kd [14]: 350 nM
Kd [15]: 560 nM
KD fold (SG1 = 1) [8]: 0.18 fold

B7: M103205H795-MY531/M103202L889-SK1 (antibody, human IgG1, kappa, name in EU numbering)
heavy: B3 heavy with L236W, V241S, L300S, K328T
light: B1 light
notes: copies: 2 + 2
KD fold (SG1 = 1) [11]: 0.28 fold
KD fold (SG1 = 1) [13]: 3.1 fold

B9: M103205H795-MY530 / M103202L889-SK1 (antibody, human IgG1, kappa, name in EU numbering)
heavy: B3 heavy with V241S, L300S, K328T
light: B1 light
Kd [16]: 1300 nM
KD fold (SG1 = 1) [17]: 2.9 fold
KD fold (SG1 = 1) [18]: 2.5 fold

B10: M103205H795-MY520 / M103202L889-SK1 (antibody, human IgG1, kappa, name in EU numbering)
heavy: B3 heavy with P234D, Q297L, L300S
light: B1 light
KD fold (SG1 = 1) [7]: 0.23 fold
KD fold (SG1 = 1) [17]: 3.3 fold
KD fold (SG1 = 1) [19]: 8.1 fold
KD fold (SG1 = 1) [9]: 3.2 fold

Continued, values first:

KD fold (SG1 = 1) [5]: 0.24 fold
KD fold (SG1 = 1) [6]: 5.6 fold
B2: M103205H795-MY537/M103202L889-SK1 (antibody, human IgG1, kappa, name in EU numbering)
heavy: B3 heavy with A233G, L236W, Q297L, L300S
light: B1 light
notes: copies: 2 + 2

KD fold (SG1 = 1) [11]: 0.15 fold
KD fold (SG1 = 1) [5]: 0.22 fold
KD fold (SG1 = 1) [12]: 5.8 fold
B4: M103205H795-MY534/M103202L889-SK1 (antibody, human IgG1, kappa, name in EU numbering)
heavy: B3 heavy with Q297L, L300S
light: B1 light
notes: copies: 2 + 2

KD fold (SG1 = 1) [5]: 0.33 fold
KD fold (SG1 = 1) [6]: 7.7 fold
KD fold (SG1 = 1) [13]: 4.8 fold
B5: M103205H795-MY533/M103202L889-SK1 (antibody, human IgG1, kappa, name in EU numbering)
heavy: B3 heavy with L236W, Q297L, L300S
light: B1 light
notes: copies: 2 + 2

KD fold (SG1 = 1) [11]: 0.48 fold
KD fold (SG1 = 1) [12]: 5.8 fold
B8: M103205H795-MY532/M103202L889-SK1 (antibody, human IgG1, kappa, name in EU numbering)
heavy: B3 heavy with L236W, L300S
light: B1 light
notes: copies: 2 + 2

Reference: patent publication US20250076311A1 (Chugai, published 2025)
